Assay results published in the supplement of paper PMC11246515.
± gives the standard deviation of the averaged measurements.

Assay: total protein half-life in vivo (active degradation + dilution); higher = more stable protein
[1] = E. coli NCM3722 delta-clpP delta-lon delta-hslV, growth: N-lim chemostat, doubling time 6 h
[2] = E. coli NCM3722 delta-clpP, growth: N-lim chemostat, doubling time 6 h
[3] = E. coli NCM3722 delta-hslV, growth: N-lim chemostat, doubling time 6 h
[4] = E. coli NCM3722 delta-lon, growth: N-lim chemostat, doubling time 6 h
[5] = E. coli NCM3722 delta-smpB, growth: N-lim chemostat, doubling time 6 h
[6] = wild type E. coli NCM3722, growth: C-lim chemostat, doubling time 3 h
[7] = wild type E. coli NCM3722, growth: C-lim chemostat, doubling time 6 h
[8] = wild type E. coli NCM3722, growth: C-lim chemostat, doubling time 12 h
[9] = wild type E. coli NCM3722, growth: N-lim chemostat, doubling time 6 h
[10] = wild type E. coli NCM3722, growth: N-lim chemostat, doubling time 12 h
[11] = wild type E. coli NCM3722, growth: P-lim chemostat, doubling time 6 h
[12] = wild type E. coli NCM3722, growth: P-lim chemostat, doubling time 12 h

Row | Sequence | total protein half-life in vivo [1] [h] | total protein half-life in vivo [2] [h] | total protein half-life in vivo [3] [h] | total protein half-life in vivo [4] [h] | total protein half-life in vivo [5] [h] | total protein half-life in vivo [6] [h] | total protein half-life in vivo [7] [h] | total protein half-life in vivo [8] [h] | total protein half-life in vivo [9] [h] | total protein half-life in vivo [10] [h] | total protein half-life in vivo [11] [h] | total protein half-life in vivo [12] [h]
1 | MSLWKKISLGVVIVILLLLGSVAFLVGTTSGLHLVFKAADRWVPGLDIGKVTGGWRDLTLSDVRYEQPGVAVKAGNLHLAVGLECLWNSSVCINDLALKDIQVNIDSKKMPPSEQVEEEEDSGPLDLSTPYPITLTRVALDNVNIKIDDTTVSVMDFTSGLNWQEKTLTLKPTSLKGLLIALPKVAEVAQEEVVEPKIENPQPDEKPLGETLKDLFSRPVLPEMTDVHLPLNLNIEEFKGEQLRVTGDTDITVSTMLLKVSSIDGNTKLDALDIDSSQGIVNASGTAQLSDNWPVDITLNSTLNVEPLKGEKVKLKMGGALREQLEIGVNLSGPVDMDLRAQTRLAEAGLPLNVEVNSKQLYWPFTGEKQYQADDLKLKLTGKMTDYTLSMRTAVKGQEIPPATITLDAKGNEQQVNLDKLTVAALEGKTELKALLDWQQAISWRGELTLNGINTAKEFPDWPSKLNGLIKTRGSLYGGTWQMDVPELKLTGNVKQNKVNVDGTLKGNSYMQWMIPGLHLELGPNSAEVKGELGVKDLNLDATINAPGLDNALPGLGGTAKGLVKVRGTVEAPQLLADITARGLRWQELSVAQVRVEGDIKSTDQIAGKLDVRVEQISQPDVNINLVTLNAKGSEKQHELQLRIQGEPVSGQLNLAGSFDRKEERWKGTLSNTRFQTPVGPWSLTRDIALDYRNKEQKISIGPHCWLNPNAELCVPQTIDAGAEGRAVVNLNRFDLAMLKPFMPETTQASGIFTGKADVAWDTTKEGLPQGSITLSGRNVQVTQTVNDAALPVAFQTLNLTAELRNNRAELGWTIRLTNNGQFDGQVQVTDPQGRRNLGGNVNIRNFNLAMINPIFTRGEKAAGMVSANLRLGGDVQSPQLFGQLQVTGVDIDGNFMPFDMQPSQLAVNFNGMRSTLAGTVRTQQGEIYLNGDADWSQIENWRARVTAKGSKVRITVPPMVRMDVSPDVVFEATPNLFTLDGRVDVPWARIVVHDLPESAVGVSSDVVMLNDNLQPEEPKTASIPINSNLIVHVGNNVRIDAFGLKARLTGDLNVVQDKQGLGLNGQINIPEGRFHAYGQDLIVRKGELLFSGPPDQPYLNIEAIRNPDATEDDVIAGVRVTGLADEPKAEIFSDPAMSQQAALSYLLRGQGLESDQSDSAAMTSMLIGLGVAQSGQIVGKIGETFGVSNLALDTQGVGDSSQVVVSGYVLPGLQVKYGVGIFDSIATLTLRYRLMPKLYLEAVSGVDQALDLLYQFEF | 5.88 ± 0.49 | 6.03 ± 0.44 | 6.95 ± 0.39 | 6.374 ± 0.041 | 5.69 ± 0.29 | 3.04 ± 0.044 | 5.97 ± 0.5 | 11.7 ± 1.2 | 6.2514 ± 0.0027 | 12.1 ± 0.24 | 5.992 ± 0.026 | 12.22 ± 0.066
2 | MGKHHWKIEKQPEWYVKAVRKTIAALPSGYAEAADWLDVTENALFNRLRADGDQIFPLGWAMVLQRAGGTHFIADAVAQSANGVFVSLPDVEDVDNADINQRLLEVIEQIGSYSKQIRSAIEDGVVEPHEKTAINDELYLSISKLQEHAALVYKIFCISESNDARECAAPGVVASIASGCGETNA | 2.93 ± 0.6 |  |  |  |  |  |  |  |  |  |  | 
3 | MKQATRKPTTPGDILLYEYLEPLDLKINELAELLHVHRNSVSALINNNRKLTTEMAFRLAKVFDTTVDFWLNLQAAVDLWEVENNMRTQEELGRIETVAEYLARREERAKKVA [P0A9T6] | 5.02 ± 0.066 | 3.95 ± 0.23 | 0.853 | 0.94 | 0.895 ± 0.037 | 0.871 ± 0.018 | 0.977 ± 0.032 | 1.53 | 1.08 | 1.08 | 0.994 ± 0.08 | 1.7 ± 0.7
4 | MQKFDTRTFQGLILTLQDYWARQGCTIVQPLDMEVGAGTSHPMTCLRELGPEPMAAAYVQPSRRPTDGRYGENPNRLQHYYQFQVVIKPSPDNIQELYLGSLKELGMDPTIHDIRFVEDNWENPTLGAWGLGWEVWLNGMEVTQFTYFQQVGGLECKPVTGEITYGLERLAMYIQGVDSVYDLVWSDGPLGKTTYGDVFHQNEVEQSTYNFEYADVDFLFTCFEQYEKEAQQLLALENPLPLPAYERILKAAHSFNLLDARKAISVTERQRYILRIRTLTKAVAEAYYASREALGFPMCNKDK | 6.13 ± 0.15 | 6.28 ± 1.2 | 6.72 ± 0.52 | 6.54 ± 0.34 | 4.88 ± 0.31 | 3.4 ± 0.69 | 6.44 ± 0.24 |  | 6.04 ± 0.12 |  | 6.78 ± 1.4 | 13.3 ± 0.41
5 | MSVRLVLAKGREKSLLRRHPWVFSGAVARMEGKASLGETIDIVDHQGKWLARGAYSPASQIRARVWTFDPSESIDIAFFSRRLQQAQKWRDWLAQKDGLDSYRLIAGESDGLPGITIDRFGNFLVLQLLSAGAEYQRAALISALQTLYPECSIYDRSDVAVRKKEGMELTQGPVTGELPPALLPIEEHGMKLLVDIQHGHKTGYYLDQRDSRLATRRYVENKRVLNCFSYTGGFAVSALMGGCSQVVSVDTSQEALDIARQNVELNKLDLSKAEFVRDDVFKLLRTYRDRGEKFDVIVMDPPKFVENKSQLMGACRGYKDINMLAIQLLNEGGILLTFSCSGLMTSDLFQKIIADAAIDAGRDVQFIEQFRQAADHPVIATYPEGLYLKGFACRVM | 5.39 ± 0.22 | 5.51 ± 0.19 | 5.55 ± 0.16 | 6.51 ± 0.56 | 5.25 ± 0.27 | 3.02 ± 0.1 | 6.57 ± 0.19 | 11.32 ± 0.082 | 6.03 ± 0.6 | 11.3 ± 1.5 | 6.28 ± 1.2 | 13.1 ± 1.7
6 | MKLFYKPGACSLASHITLRESGKDFTLVSVDLMKKRLENGDDYFAVNPKGQVPALLLDDGTLLTEGVAIMQYLADSVPDRQLLAPVNSISRYKTIEWLNYIATELHKGFTPLFRPDTPEEYKPTVRAQLEKKLQYVNEALKDEHWICGQRFTIADAYLFTVLRWAYAVKLNLEGLEHIAAFMQRMAERPEVQDALSAEGLK [P0A9D2] | 4.9 ± 0.3 | 5.74 ± 1.9 | 4.81 ± 0.22 | 6.34 ± 1.4 | 4.64 ± 0.58 | 2.84 ± 0.23 | 5.69 ± 0.32 | 11.6 ± 2.5 | 4.81 ± 0.2 | 9.9 ± 0.87 | 5.44 ± 0.29 | 10.6 ± 0.74
